Laboratory results taken from paper doi:10.1101/2022.10.04.510822 (bioRxiv, 2022).

Target: GST-GABARAP (human, UniProt O95166 1-117)
Test: pull-down

Chain of GST-GABARAP (O95166 whole entry): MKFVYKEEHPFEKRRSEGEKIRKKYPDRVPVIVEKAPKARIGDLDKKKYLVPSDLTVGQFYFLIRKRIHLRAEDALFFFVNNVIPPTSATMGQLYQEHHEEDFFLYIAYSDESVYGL

KPHKHLPPAALHLIAYYKENKDREDKR [WSTF peptide PP4 (residues 466-492)]: binds.
